Values of other authors in paper PMC3587688.

Biological target: ephrin-B2 (Homo sapiens) (UniProt P52799)
Sequence (P52799 28-333): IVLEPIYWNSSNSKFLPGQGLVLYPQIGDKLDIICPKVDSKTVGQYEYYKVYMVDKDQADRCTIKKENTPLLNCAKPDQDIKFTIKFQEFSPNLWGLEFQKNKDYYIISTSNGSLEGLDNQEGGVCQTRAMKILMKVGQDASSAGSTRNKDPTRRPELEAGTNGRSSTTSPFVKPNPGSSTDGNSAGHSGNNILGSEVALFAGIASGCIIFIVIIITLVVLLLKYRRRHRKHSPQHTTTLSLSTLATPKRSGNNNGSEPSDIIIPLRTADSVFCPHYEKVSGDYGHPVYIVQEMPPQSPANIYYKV

Chain of HeV-G (O89343 whole entry): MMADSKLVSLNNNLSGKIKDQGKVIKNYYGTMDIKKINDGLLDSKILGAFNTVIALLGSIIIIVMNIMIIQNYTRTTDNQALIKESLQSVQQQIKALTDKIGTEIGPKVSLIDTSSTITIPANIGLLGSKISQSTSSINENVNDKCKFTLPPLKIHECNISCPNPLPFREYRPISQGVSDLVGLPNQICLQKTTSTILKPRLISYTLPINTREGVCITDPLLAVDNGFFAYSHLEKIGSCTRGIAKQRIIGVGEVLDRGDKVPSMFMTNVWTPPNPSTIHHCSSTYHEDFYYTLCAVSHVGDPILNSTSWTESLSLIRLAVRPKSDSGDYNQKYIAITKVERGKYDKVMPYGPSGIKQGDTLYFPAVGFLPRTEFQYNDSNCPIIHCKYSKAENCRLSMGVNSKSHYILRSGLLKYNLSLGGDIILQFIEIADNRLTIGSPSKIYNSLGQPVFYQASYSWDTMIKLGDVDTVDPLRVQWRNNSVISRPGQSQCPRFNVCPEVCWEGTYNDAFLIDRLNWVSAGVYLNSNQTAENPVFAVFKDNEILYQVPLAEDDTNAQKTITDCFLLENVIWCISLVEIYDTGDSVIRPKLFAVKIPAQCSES

Substance: HeV-G (from UniProt O89343)
- Kd: 570 pM
